Measured values from patent US20240252592A1 (TIANJIN INSTITUTE OF PHARMACEUTICAL RESEARCH, published 2024).
Numbered stars: 1 amine (or outer) side, 2 acyl side, 3 side chain; on linkers, the order of the positions; unused ones are H or OH. Square brackets hold non-standard residues; d marks the D form. Side chains are listed from the residue outwards. Ends that are not written are not given here. * marks the point of attachment. OC17H32COOH = fatty diacid acyl group -OC17H32COOH on the linker; C20 diacid = O=C(O)CCCCCCCCCCCCCCCCCCC(=O)*; C18 diacid = O=C(O)CCCCCCCCCCCCCCCCC(=O)*; γGlu = O=C(O)[C@H](CCC(=O)[*:2])N[*:1]; Palmitoyl = CCCCCCCCCCCCCCCC(=O)*; AEEA = NCCOCCOCC(=O)O; Aib = CC(C)(N)C(=O)O

Tests used:
human GLP-1 receptor = human GLP-1 receptor (human, UniProt P43220 24-463); assay: cell-based or functional assay
GC receptor = assay: cell-based or functional assay

Binder | EC50 of GLP-1 receptor mediated cAMP production (human GLP-1 receptor) [nM] | EC50 of GC receptor mediated cAMP production (GC receptor) [nM]
H[Aib]QGTFTSDYSKYLEERKAK([γGlu-γGlu-Palmitoyl])EFVEWLEGGPSSG-NH2 (not fully specified; printed as HAibQGTFTSDYSKYLEERKAK*EFVEWLEGGPSSG-Amid) [Compound 62] | 0.313 | 0.156
H[Aib]QGTFTSDYSKYLEEKRAK([γGlu-γGlu-Palmitoyl])EFVEWLEGGPSSG-NH2 (not fully specified; printed as HAibQGTFTSDYSKYLEEKRAK*EFVEWLEGGPSSG-Amid) [Compound 76] | 0.22 | 0.191
H[Aib]QGTFTSDYSKYLEEKRAK([AEEA-AEEA-γGlu-C18 diacid])EFVAWLEGGPSSG-NH2 (not fully specified; printed as HAibQGTFTSDYSKYLEEKRAK**EFVAWLEGGPSSG-Amid) [Compound 74] | 0.842 | 0.725
H[Aib]QGTFTSDYSKYLDEKRAK([γGlu-γGlu-Palmitoyl])EFIAWLEAGGPSSG-NH2 (not fully specified; printed as HAibQGTFTSDYSKYLDEKRAK*EFIAWLEAGGPSSG-Amid) [Compound 57] | 0.094 | 0.081
H[Aib]QGTFTSDYSKYLDERKAK([AEEA-AEEA-γGlu-OC17H32COOH])EFIEWLEGGPSSG-NH2 (not fully specified; printed as HAibQGTFTSDYSKYLDERKAK**EFIEWLEGGPSSG-Amid) [Compound 66] | 0.051 | 0.058
H[Aib]QGTFTSDYSKYLDERKAK([γGlu-γGlu-Palmitoyl])EFVEWLEGGPSSG-NH2 (not fully specified; printed as HAibQGTFTSDYSKYLDERKAK*EFVEWLEGGPSSG-Amid) [Compound 69] | 0.778 | 0.261
HXQGTFTSDKSKYLXERAAKEFIXWLEAGGPSSG (not fully specified; Lys 10 side chain -Ado-Ado-γE-OC17H32COOH; C-terminal amide) [Compound 79] | 0.033 | 0.025
H[Aib]QGTFTSDYSKYLEERKAK([AEEA-AEEA-γGlu-C20 diacid])EFIAWLEGGPSSG-NH2 (not fully specified; printed as HAibQGTFTSDYSKYLEERKAK***EFIAWLEGGPSSG-Amid) [Compound 68] | 0.13 | 0.314
